Test results from article PMC10033678, “The RRM-mediated RNA binding activity in T. brucei RAP1 is essential for VSG monoallelic expression”.

How the values were obtained:
[1] = biological target: T1, TbRAP1 639-733 (RRM) (Trypanosoma brucei) (UniProt C1JEX5); assay: fluorescence polarization; conditions: EMSA: 20 mM HEPES pH 7.9, 235 mM KCl, 1 mM MgCl2, 0.1 mM EDTA, 100 ng/ul BSA, 5% glycerol, 1 mM DTT, room temp 30 min; FP: 20 mM sodium phosphate pH 7.0, 50 mM …
T1 sequence: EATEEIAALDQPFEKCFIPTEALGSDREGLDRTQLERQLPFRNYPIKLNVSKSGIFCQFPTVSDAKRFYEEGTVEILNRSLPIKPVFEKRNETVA

TbRAP1 639-733 (RRM) [2] = biological target: T2, TbRAP1 639-733 (RRM) (Trypanosoma brucei, UniProt C1JEX5 639-733); assay: NMR titration; EMSA: 20 mM HEPES pH 7.9, 235 mM KCl, 1 mM MgCl2, 0.1 mM EDTA, 100 ng/ul BSA, 5% glycerol, 1 mM DTT, room temp 30 min; FP: 20 mM sodium phosphate pH 7.0, 50 mM; conditions: protein: recombinant, tags: none (TrxA-His6 removed by 3C for EMSA)
TbRAP1 639-761 (RRM+DB) [3] = biological target: T3, TbRAP1 639-761 (RRM+DB) (Trypanosoma brucei, UniProt C1JEX5 639-761); assay: EMSA; EMSA: 20 mM HEPES pH 7.9, 235 mM KCl, 1 mM MgCl2, 0.1 mM EDTA, 100 ng/ul BSA, 5% glycerol, 1 mM DTT, room temp 30 min; FP: 20 mM sodium phosphate pH 7.0, 50 mM; conditions: protein: recombinant, tags: none (TrxA-His6 removed by 3C for EMSA)
TH6-TbRAP1 639-733 = TH6-TbRAP1 639-733 (Trypanosoma brucei, UniProt C1JEX5 639-733); assay: as above; conditions: protein: recombinant; tags: TrxA-His6; label: 32P
TbRAP1 639-733 2FL [4] = biological target: T4, TbRAP1 639-733 2FL (Trypanosoma brucei, UniProt C1JEX5 639-733, F655L;F694L); assay: as above; conditions: protein: recombinant, tags: none (TrxA-His6 removed by 3C for EMSA)
TH6-TbRAP1 639-761 = TH6-TbRAP1 639-761 (Trypanosoma brucei, UniProt C1JEX5 639-761); assay: as above; conditions: protein: recombinant; tags: TrxA-His6; label: 32P
TbRAP1 639-733 2FQ = TbRAP1 639-733 2FQ (Trypanosoma brucei, UniProt C1JEX5 639-733, F655Q;F694Q); assay: as above; conditions: protein: recombinant, tags: none (TrxA-His6 removed by 3C)
TH6-TbRAP1 639-761 5A = TH6-TbRAP1 639-761 5A (Trypanosoma brucei, UniProt C1JEX5 639-761, R737A;K738A;R739A;R740A;R741A); assay: as above; conditions: protein: recombinant, tags: TrxA-His6
TbRAP1 639-733 2FA = TbRAP1 639-733 2FA (Trypanosoma brucei, UniProt C1JEX5 639-733, F655A;F694A); assay: as above; conditions: protein: recombinant, tags: none (TrxA-His6 removed by 3C)
TbRAP1 639-761 (RRM+DB) [5] = biological target: T3, TbRAP1 639-761 (RRM+DB); assay: NMR titration; EMSA: 20 mM HEPES pH 7.9, 235 mM KCl, 1 mM MgCl2, 0.1 mM EDTA, 100 ng/ul BSA, 5% glycerol, 1 mM DTT, room temp 30 min; FP: 20 mM sodium phosphate pH 7.0, 50 mM; conditions: protein: recombinant; tags: none (TrxA-His6 removed by 3C for EMSA)
TbRAP1 639-733 2FL [6] = biological target: T4, TbRAP1 639-733 2FL; assay: NMR titration; 3x molar excess RNA; EMSA: 20 mM HEPES pH 7.9, 235 mM KCl, 1 mM MgCl2, 0.1 mM EDTA, 100 ng/ul BSA, 5% glycerol, 1 mM DTT, room temp 30 min; FP: 20 mM sodium phosphate pH 7.0, 50 mM; conditions: protein: recombinant; tags: none (TrxA-His6 removed by 3C for EMSA)
TbRAP1 639-733 (RRM) [7] = biological target: T2, TbRAP1 639-733 (RRM); assay: EMSA; EMSA: 20 mM HEPES pH 7.9, 235 mM KCl, 1 mM MgCl2, 0.1 mM EDTA, 100 ng/ul BSA, 5% glycerol, 1 mM DTT, room temp 30 min; FP: 20 mM sodium phosphate pH 7.0, 50 mM; conditions: protein: recombinant; tags: none (TrxA-His6 removed by 3C for EMSA); label: 32P end label
[8] = biological target: TH6-TbRAP1 639-761 2FA&5A (Trypanosoma brucei, UniProt C1JEX5 639-761, F655A;F694A;R737A;K738A;R739A;R740A;R741A); assay: as above; conditions: protein: recombinant; tags: TrxA-His6
TbRAP1 639-761 5A = TbRAP1 639-761 5A (Trypanosoma brucei, UniProt C1JEX5 639-761, R737A;K738A;R739A;R740A;R741A); assay: fluorescence polarization; EMSA: 20 mM HEPES pH 7.9, 235 mM KCl, 1 mM MgCl2, 0.1 mM EDTA, 100 ng/ul BSA, 5% glycerol, 1 mM DTT, room temp 30 min; FP: 20 mM sodium phosphate pH 7.0, 50 mM; conditions: protein: recombinant; label: 5' 6-FAM
TbRAP1 639-761 (RRM+DB) [9] = biological target: T3, TbRAP1 639-761 (RRM+DB); assay: as above; conditions: protein: recombinant; tags: none (TrxA-His6 removed by 3C for EMSA); label: 5' 6-FAM

UGAUAUAUUUUAACAC [6-FAM-16-VSG-UTR]
Kd [1]: 929 µM

ACAGACCACUACAAGAUACACAGUACAACCAACCA (ssRNA) [35-random]
binding result (TbRAP1 639-733 (RRM) [2]; label: 32P end label in EMSA): no binding

B1: 80-dsDNA (dsDNA)
DNA 1: CGTGCAGAGCAGGAAAAAGCCACACGGGAACTCCTCCTGCAACAAACTTCAGCACCACATGCATCATCAGTTACATCCGG
DNA 2: CCGGATGTAACTGATGATGCATGTGGTGCTGAAGTTTGTTGCAGGAGGAGTTCCCGTGTGGCTTTTTCCTGCTCTGCACG
binding result (TbRAP1 639-761 (RRM+DB) [3]; label: 32P Klenow, blunt): binds

B2: 170-no-VSG (ssRNA)
RNA: GGGCGAAUUGGGUACCGGGCCCCCCCUCGAGGUCGACGGUAUCGAUAAGCUUGAUAUCGAAUUCAAUUCCAAAGAAGCCAUGCGCCGUGCAGAGCAGGAAAAAGCCACACGGGAACUCCUCCUGCAACAAACUUCAGCACCACAUGCAUCAUCAGUUACAUCCGGGAUCC
binding result (TH6-TbRAP1 639-733): binds
binding result (TbRAP1 639-733 2FL [4]; label: 32P): no binding
binding result (TH6-TbRAP1 639-761): binds
binding result (TbRAP1 639-733 2FQ; label: 32P): no binding
binding result (TH6-TbRAP1 639-761 5A; label: 32P): binds
binding result (TbRAP1 639-761 (RRM+DB) [3]; label: 32P): binds
binding result (TbRAP1 639-733 2FA; label: 32P): no binding

AAAACUUUUUGAUAUAUUUUAACACCAAAACCAG (ssRNA) [34-VSG-UTR]
binding result (TbRAP1 639-761 (RRM+DB) [5]): binds
binding result (TbRAP1 639-733 2FL [6]): no binding

UUAGGGUUAGGG (ssRNA) [(UUAGGG)2]
binding result (TbRAP1 639-733 (RRM) [2]): no binding

UUGCUACUUGAAAACUUUUUGAUAUAUUUUAACAC (ssRNA) [35-VSG-UTR]
binding result (TbRAP1 639-733 (RRM) [7]): binds
binding result (TbRAP1 639-761 (RRM+DB) [3]; label: 32P end label): binds

B3: 170-VSG-UTR (ssRNA)
RNA: GGGCGAAUUGGGUACCGGGCCCCCCCUCGAGGUCGACGGUAUCGAUAAGCUUGAUAUCGAAUUCAAUUCAUUUCCCCCCUCAAAUUUCCCCCCUCCUUUUAAAAUUUUCCUUGCUACUUGAAAACUUUUUGAUAUAUUUUAACACCAAAACCAGCCGAGAUUUGGGAUCC
binding result [8]: no binding
binding result (TbRAP1 639-733 2FL [4]): no binding
binding result (TbRAP1 639-733 2FQ): no binding
binding result (TH6-TbRAP1 639-761 5A): binds
Kd (TbRAP1 639-761 (RRM+DB) [3]): ~0.173 µM
binding result (TbRAP1 639-733 2FA): no binding

UGAUAUAUUUUAACAC (ssRNA) [6-FAM-16-VSG-UTR]
Kd (TbRAP1 639-761 5A): ~969 µM
Kd (TbRAP1 639-761 (RRM+DB) [9]): ~258 µM
